{"source": "patent US20200231681A1", "about": "(CHONG KUN DANG PHARMACEUTICAL, published 2020)", "binders": {"B1": {"name": "hu8C4 (IgG1 humanized antibody having a hinge region of SEQ ID NO: 38 in hu8C4-1) (antibody, V domains shown)", "VH": "EVQLVESGGGLVQPGGSLRLSCAASGYTFSDYYINWVRQAPGKGLEWIGEIFPGSGNTHFSARFKGRATLSADKSKNTAYLQMNSLRAEDTAVYYCAGGDYGFLYWGQGTLVTVSS", "VL": "DIQMTQSPSSLSASVGDRVTITCGASENIYGALNWYQQKPGKAPKLLIYGATNLADGVPSRFSGSGSGRDFTFTISSLQPEDIATYYCQNVLSSPYTFGQGTKVEIK", "notes": "light chain detected with anti-human kappa; also called anti-c-Met antibody hu8C4; hu8C4 monospecific antibody"}}, "key": {"[1]": {"biological_target": "T1, mouse c-Met (SiNo. Biological Inc, 50622-M08H) (mouse, UniProt P16056 25-931)", "T1 construct": "extracellular domain", "T1 sequence (P16056 25-931, stated change not applied)": "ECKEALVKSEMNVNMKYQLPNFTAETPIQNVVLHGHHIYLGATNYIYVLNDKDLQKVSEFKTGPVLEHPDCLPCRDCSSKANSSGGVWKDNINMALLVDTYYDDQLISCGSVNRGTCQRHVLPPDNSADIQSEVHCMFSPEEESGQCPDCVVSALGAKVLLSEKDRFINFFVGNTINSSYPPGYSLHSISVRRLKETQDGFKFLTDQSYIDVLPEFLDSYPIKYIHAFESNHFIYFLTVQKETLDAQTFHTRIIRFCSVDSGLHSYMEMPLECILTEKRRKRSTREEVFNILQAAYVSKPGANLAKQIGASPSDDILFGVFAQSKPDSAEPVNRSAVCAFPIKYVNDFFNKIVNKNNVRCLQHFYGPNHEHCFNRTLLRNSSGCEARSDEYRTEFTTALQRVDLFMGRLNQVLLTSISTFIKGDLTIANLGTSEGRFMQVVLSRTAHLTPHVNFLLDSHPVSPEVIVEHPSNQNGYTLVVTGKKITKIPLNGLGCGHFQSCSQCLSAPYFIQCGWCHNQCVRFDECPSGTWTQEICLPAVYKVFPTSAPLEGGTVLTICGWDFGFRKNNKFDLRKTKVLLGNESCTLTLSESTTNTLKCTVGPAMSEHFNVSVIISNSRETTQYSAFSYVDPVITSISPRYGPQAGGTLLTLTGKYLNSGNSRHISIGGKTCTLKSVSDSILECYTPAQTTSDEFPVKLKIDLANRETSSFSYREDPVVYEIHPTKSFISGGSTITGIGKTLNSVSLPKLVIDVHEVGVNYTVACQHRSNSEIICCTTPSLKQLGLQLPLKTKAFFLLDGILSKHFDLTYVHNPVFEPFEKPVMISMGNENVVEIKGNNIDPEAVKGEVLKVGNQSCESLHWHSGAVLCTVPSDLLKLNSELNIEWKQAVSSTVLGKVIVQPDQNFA", "test": "ELISA, antigen coated at 2 µg/ml, antibody 6.4 pM to 100 nM, anti-human IgG F(ab')2-HRP, TMB, O.D. at 450 nm [panel Mouse cMet]", "protocol": "Particularly, mouse c-Met (SiNo. Biological Inc, 50622-M08H), cynomolgus monkey c-Met (SiNo. Biological Inc, 90304-CO8H), human c-Met (R&D Systems, 358-MT), mouse EGFR (SiNo. Biological Inc, 51091-M08H), cynomolgus monkey EGFR (SiNo. Biological, 90285-008B) and human EGFR (Abcam, 155639) antigens were all divided into a 96-well plate at a concentration of 2 μg/ml, after which the resulting plate was reacted at 4° C. overnight.\nColor development was made by using TMB (Sigma, T4444) solution, wherein its value was measured at an optical density of 450 nm and its ELISA results are shown in FIG. 9."}, "[2]": {"biological_target": "T2, human PDGF Rβ Fc chimera (R&D systems, 385-PR_CF) (human, UniProt P09619 33-530)", "T2 sequence (P09619 33-530, change not shown)": "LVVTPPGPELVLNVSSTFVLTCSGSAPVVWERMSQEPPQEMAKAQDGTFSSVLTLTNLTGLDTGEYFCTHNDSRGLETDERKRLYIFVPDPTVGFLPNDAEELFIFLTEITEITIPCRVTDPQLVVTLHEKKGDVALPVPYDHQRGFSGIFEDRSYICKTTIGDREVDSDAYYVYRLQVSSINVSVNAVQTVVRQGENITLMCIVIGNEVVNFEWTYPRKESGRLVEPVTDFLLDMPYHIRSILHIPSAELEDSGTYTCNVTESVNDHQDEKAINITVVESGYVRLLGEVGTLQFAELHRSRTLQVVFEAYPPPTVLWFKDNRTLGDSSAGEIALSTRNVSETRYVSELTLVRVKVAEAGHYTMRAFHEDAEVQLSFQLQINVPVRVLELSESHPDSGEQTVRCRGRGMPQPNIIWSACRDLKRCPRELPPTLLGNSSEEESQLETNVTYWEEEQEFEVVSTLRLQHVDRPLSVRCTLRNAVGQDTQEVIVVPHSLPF", "test": "indirect ELISA, hu8C4 at 6.000 nM", "protocol": "(§1) Each antigen was diluted in 0.05 M carbonate-bicarbonate (Sigma, C3041) buffer at a concentration of 1 μg/ml, after which the resulting antigen was added into each well of a 96-well plate (Corning, #2592), such that the resulting plate was coated at 4° C. overnight. The plate was washed once with TBS-T, after which TBS-T containing 4%—skim milk was added by 200 μl into each well of the resulting plate in order to inhibit a non-specific binding, such that the resulting plate was reacted at 37° C. for 1 hour. Then, the plate was washed once with TBS-T buffer, after which a primary antibody was sequentially diluted in TBS-T buffer containing 2%—skim milk from a highest concentration of 30 nM to 0.002 nM, such that the resulting antibody was added by 100 μk into each well, thus being reacted at 37° C. for 2 hours. After being washed three times with TBS-T buffer, an anti-human kappa light chains-peroxidase (Sigma, A7164) was diluted at a ratio of 1:5000 as a secondary antibody, after which the resulting antibody was added by 100 μl into each well, thus being reacted at 37° C. for 1 hour. Then, after being washed three times with TBS-T buffer, TMB solution (Sigma, T4444) was added by 100 μl into each well to carry out an color developing reaction, after which 2 N […] solution was added by 50 μl into each well to stop the reaction. An optical density was measured based on a value at a wavelength of 450 nm by using a microplate reader and a reference wavelength of 570 nm was used."}, "[3]": {"biological_target": "T3, human MSP R/Ron (R&D systems, 1947-MS-050) (human, UniProt Q04912 25-571, limits assumed)", "test": "indirect ELISA, hu8C4 at 6.000 nM", "protocol": "as §1"}, "[4]": {"biological_target": "T4, human IGF-I R (R&D systems, 391-GR-050) (human, UniProt P08069 31-932)", "test": "indirect ELISA, hu8C4 at 6.000 nM", "protocol": "as §1"}, "[5]": {"biological_target": "T5, human VEGF R2 Fc chimera (R&D systems, 357-KD_CF) (human, UniProt P35968 20-764)", "T5 construct": "also called VEGFR R2", "T5 sequence (P35968 20-764, change not shown)": "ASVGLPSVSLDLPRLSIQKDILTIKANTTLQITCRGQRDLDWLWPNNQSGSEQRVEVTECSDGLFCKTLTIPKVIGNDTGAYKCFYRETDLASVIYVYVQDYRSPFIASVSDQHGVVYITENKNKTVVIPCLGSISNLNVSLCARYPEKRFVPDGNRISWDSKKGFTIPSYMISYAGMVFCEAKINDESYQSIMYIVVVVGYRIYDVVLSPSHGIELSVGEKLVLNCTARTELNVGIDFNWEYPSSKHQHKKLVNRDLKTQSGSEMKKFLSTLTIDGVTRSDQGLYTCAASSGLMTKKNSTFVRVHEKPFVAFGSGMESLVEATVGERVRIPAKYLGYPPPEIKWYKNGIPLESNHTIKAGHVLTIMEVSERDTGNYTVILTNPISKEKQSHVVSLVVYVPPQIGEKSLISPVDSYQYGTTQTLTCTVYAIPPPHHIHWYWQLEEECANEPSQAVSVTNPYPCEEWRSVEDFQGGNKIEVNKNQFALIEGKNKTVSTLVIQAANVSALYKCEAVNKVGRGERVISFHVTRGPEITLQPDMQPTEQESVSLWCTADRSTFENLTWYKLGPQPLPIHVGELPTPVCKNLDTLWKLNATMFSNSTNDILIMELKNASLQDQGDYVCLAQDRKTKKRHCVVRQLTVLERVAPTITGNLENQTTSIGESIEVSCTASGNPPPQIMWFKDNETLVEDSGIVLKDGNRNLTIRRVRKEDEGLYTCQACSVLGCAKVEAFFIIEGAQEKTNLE", "test": "indirect ELISA, hu8C4 at 6.000 nM", "protocol": "as §1"}, "[6]": {"biological_target": "T2, human PDGF Rβ Fc chimera (R&D systems, …)", "test": "indirect ELISA, hu8C4 at 0.010 nM", "protocol": "as §1"}, "[7]": {"biological_target": "T4, human IGF-I R (R&D systems, 391-GR-050)", "test": "indirect ELISA, hu8C4 at 0.010 nM", "protocol": "as §1"}, "[8]": {"biological_target": "T2, human PDGF Rβ Fc chimera (R&D systems, …)", "test": "indirect ELISA, hu8C4 at 0.048 nM", "protocol": "as §1"}, "[9]": {"biological_target": "T3, human MSP R/Ron (R&D systems, …)", "test": "indirect ELISA, hu8C4 at 0.048 nM", "protocol": "as §1"}, "[10]": {"biological_target": "T6, human c-Met Fc chimera (R&D systems, 358-MT_CF) (human, UniProt P08581 25-932)", "T6 construct": "extracellular domain; also called human c-Met (R&D Systems, 358-MT)", "T6 sequence (P08581 25-932, change not shown)": "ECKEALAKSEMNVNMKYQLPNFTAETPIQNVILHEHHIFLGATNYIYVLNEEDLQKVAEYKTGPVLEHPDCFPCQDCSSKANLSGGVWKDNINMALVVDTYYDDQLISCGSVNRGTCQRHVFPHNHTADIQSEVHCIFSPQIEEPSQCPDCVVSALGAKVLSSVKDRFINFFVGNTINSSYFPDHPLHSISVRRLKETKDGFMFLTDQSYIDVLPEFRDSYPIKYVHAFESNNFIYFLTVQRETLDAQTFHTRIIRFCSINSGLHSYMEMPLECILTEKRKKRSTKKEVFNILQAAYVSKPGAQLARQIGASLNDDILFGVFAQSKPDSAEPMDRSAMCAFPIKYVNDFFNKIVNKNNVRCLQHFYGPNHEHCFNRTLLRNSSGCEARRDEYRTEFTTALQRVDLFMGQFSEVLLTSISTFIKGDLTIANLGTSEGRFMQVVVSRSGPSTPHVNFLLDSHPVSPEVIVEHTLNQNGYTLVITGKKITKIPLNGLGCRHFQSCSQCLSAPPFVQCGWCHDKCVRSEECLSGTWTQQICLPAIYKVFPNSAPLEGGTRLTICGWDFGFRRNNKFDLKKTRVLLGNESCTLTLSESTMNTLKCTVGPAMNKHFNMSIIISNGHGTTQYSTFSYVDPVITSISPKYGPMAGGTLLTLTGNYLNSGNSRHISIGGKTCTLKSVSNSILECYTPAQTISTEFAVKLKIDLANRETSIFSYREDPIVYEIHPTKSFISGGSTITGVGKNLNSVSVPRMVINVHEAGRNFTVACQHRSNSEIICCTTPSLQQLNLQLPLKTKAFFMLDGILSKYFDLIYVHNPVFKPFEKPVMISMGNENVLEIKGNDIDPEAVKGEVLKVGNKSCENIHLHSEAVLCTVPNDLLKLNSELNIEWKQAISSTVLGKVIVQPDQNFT", "test": "indirect ELISA, hu8C4 at 0.048 nM", "protocol": "as §1"}, "[11]": {"biological_target": "T4, human IGF-I R (R&D systems, 391-GR-050)", "test": "indirect ELISA, hu8C4 at 0.048 nM", "protocol": "as §1"}, "[12]": {"biological_target": "T2, human PDGF Rβ Fc chimera (R&D systems, …)", "test": "indirect ELISA, hu8C4 at 30.000 nM", "protocol": "as §1"}, "[13]": {"biological_target": "T3, human MSP R/Ron (R&D systems, …)", "test": "indirect ELISA, hu8C4 at 30.000 nM", "protocol": "as §1"}, "[14]": {"biological_target": "T4, human IGF-I R (R&D systems, 391-GR-050)", "test": "indirect ELISA, hu8C4 at 30.000 nM", "protocol": "as §1"}, "[15]": {"biological_target": "T2, human PDGF Rβ Fc chimera (R&D systems, …)", "test": "indirect ELISA, hu8C4 at 1.200 nM", "protocol": "as §1"}, "[16]": {"biological_target": "T3, human MSP R/Ron (R&D systems, …)", "test": "indirect ELISA, hu8C4 at 1.200 nM", "protocol": "as §1"}, "[17]": {"biological_target": "T4, human IGF-I R (R&D systems, 391-GR-050)", "test": "indirect ELISA, hu8C4 at 1.200 nM", "protocol": "as §1"}, "[18]": {"biological_target": "T5, human VEGF R2 Fc chimera (R&D systems, …)", "test": "indirect ELISA, hu8C4 at 1.200 nM", "protocol": "as §1"}}, "data": [{"binder": "B1", "values": [{"measurement": "binding result", "setting": "[1]", "value": "no binding (tested: 100 nM)"}, {"measurement": "A450 nm-A570 nm", "setting": "[2]", "value": -0.01, "unit": "A450 nm-A570 nm"}, {"measurement": "A450 nm-A570 nm", "setting": "[3]", "value": 0, "unit": "A450 nm-A570 nm"}, {"measurement": "A450 nm-A570 nm", "setting": "[4]", "value": 0, "unit": "A450 nm-A570 nm"}, {"measurement": "A450 nm-A570 nm", "setting": "[5]", "value": -0.01, "unit": "A450 nm-A570 nm"}, {"measurement": "A450 nm-A570 nm", "setting": "[6]", "value": -0.01, "unit": "A450 nm-A570 nm"}, {"measurement": "A450 nm-A570 nm", "setting": "[7]", "value": 0, "unit": "A450 nm-A570 nm"}, {"measurement": "A450 nm-A570 nm", "setting": "[8]", "value": -0.01, "unit": "A450 nm-A570 nm"}, {"measurement": "A450 nm-A570 nm", "setting": "[9]", "value": 0, "unit": "A450 nm-A570 nm"}, {"measurement": "A450 nm-A570 nm", "setting": "[10]", "value": 0.76, "unit": "A450 nm-A570 nm"}, {"measurement": "A450 nm-A570 nm", "setting": "[11]", "value": 0, "unit": "A450 nm-A570 nm"}, {"measurement": "A450 nm-A570 nm", "setting": "[12]", "value": 0.01, "unit": "A450 nm-A570 nm"}, {"measurement": "A450 nm-A570 nm", "setting": "[13]", "value": 0, "unit": "A450 nm-A570 nm"}, {"measurement": "A450 nm-A570 nm", "setting": "[14]", "value": 0, "unit": "A450 nm-A570 nm"}, {"measurement": "A450 nm-A570 nm", "setting": "[15]", "value": -0.01, "unit": "A450 nm-A570 nm"}, {"measurement": "A450 nm-A570 nm", "setting": "[16]", "value": 0, "unit": "A450 nm-A570 nm"}, {"measurement": "A450 nm-A570 nm", "setting": "[17]", "value": 0, "unit": "A450 nm-A570 nm"}, {"measurement": "A450 nm-A570 nm", "setting": "[18]", "value": -0.01, "unit": "A450 nm-A570 nm"}]}]}
